Assay results: paper PMC3100323

Target: T1, rCmeR C69S/C166S C69S;C166S (Campylobacter jejuni NCTC 11168?) (UniProt Q0PBE2)
T1 sequence: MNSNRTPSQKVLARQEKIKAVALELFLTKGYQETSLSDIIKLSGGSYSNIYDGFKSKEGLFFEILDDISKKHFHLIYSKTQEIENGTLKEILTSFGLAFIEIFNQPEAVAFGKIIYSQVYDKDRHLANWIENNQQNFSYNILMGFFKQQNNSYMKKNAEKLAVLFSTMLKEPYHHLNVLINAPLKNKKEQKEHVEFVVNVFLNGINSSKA
Assay: EMSA
Conditions: 20 mM HEPES pH 7.6, 1 mM EDTA, 10 mM ([…], room temperature 30 min

AGGCTTTGTATTAGCTCCTATGCTTATTTAAATCAAACCCTAGGTTTTTCTCTCCTAGGGTTAAAATTTTTTCATTAGTTTTTAAGTATATACTACGCTATAATATTCATTTTTAATTTTCTTTAAGAAAGGAATTTAATGAAGATAAAAGTTGGGTTGATTTTTTCAGGTATTGCTTG (double strand) [cj0089 promoter (lipoprotein operon), 179 bp]
binding: binds more weakly
